Patent US20250127857A1, “A COMPOSITION COMPRISING IL-36 AND/OR IL-18 FOR USE IN TREATING OCULAR DISORDERS” (THE PROVOST, FELLOWS, FOUNDATION SCHOLARS, & THE OTHER …, priority 2021, published 2025)

Key:
Assay type in all cases: cell-based, human
[1] = tested on: HRMEC transwell monolayer; experiment: Trans-endothelial electrical resistance (TEER) measurement; conditions: 100 ng/ml, 6 hr, vs untreated control
[2] = tested on: VEGFR2; experiment: qPCR of VEGFR2 expression in HRMEC treated with IL-36 cytokines; conditions: treatment over timepoints
Text: Primers used were sourced from Sigma.

[3] = tested on: HRMEC transwell monolayer; experiment: Inhibition of translation (cycloheximide) with 70 kDa FITC dextran flux; conditions: 100 ng/ml cytokine plus 10 μM cycloheximide (CHX), 6 hr
Procedure: HRMEC were grown in transwells as above. Once polarised, HRMEC were treated with 10 μM of the translation inhibitor cycloheximide (Sigma) and/or IL-36 cytokine. 70 kDa FITC dextran (Sigma) diluted to 1 mg/ml in low serum media was placed in apical chamber and performing a FITC flux assay as described above.

[4] = tested on: HRMEC; experiment: Proliferation assays (nuclei cell count, MTS/PMS); conditions: 24 hours
Procedure: HRMEC were seeded on coverslips in 6 well plates at a density of 5×10^4 cells/ml and allowed to grow overnight in growth media. They were then washed in PBS and placed in reduced serum media and incubated with treatment for 24 hour. The coverslip was then washed in PBS, fixed in ice cold methanol and stained with Hoechst (1:10000). The coverslips were then affixed to slides and imaged via fluorescence. N=10 images per slip were taken and averaged to give a cell count per coverslip. For the MTS/PMS assay (Promega) cells were seeded at a density of 5×10^4 cells/ml in a 96 well plate. They were allowed to grow overnight in complete growth media before being washed and placed in low-serum media with the treatment indicated for 24 hours before the MTS/PMS assay was carried out as per manufacturer's protocol.

[5] = tested on: VE-cadherin; experiment: Western blot for VE-cadherin protein expression; conditions: HRMEC, 24 h
Procedure: (§1) FIG. 6 illustrates IL-36 cytokines alter the protein levels of adherens and tight junction components in endothelial cells, wherein (A, B) are Western blot for VE-cadherin protein expression in response to (A) IL-36α, (B) IL-36β treatment for 24 hours at indicated doses in HRMEC, representative N=4 experiments; (C, D) are Western blot for the expression of tight junction proteins ZO-1, tricellulin and occludin in response to (C) IL-36α and (D) IL-36β treatment at indicated concentrations for 24 hours in HRMEC, representative of N=3 experiments; (E) is rate of flux of 70 kDa FITC dextran through HRMEC transwell monolayer with 6 hr pretreatment of 100 ng/ml IL-36α and/or 10 μM cycloheximide (CHX), with treatment applied to apical and basal chambers, representative of N=3 experiments; (F) is permeability apparent for HRMEC treated with IL-36α and/or 10 μM CHX, calculated as stated previously; (G) is rate of flux of 70 kDa FITC dextran through HRMEC transwell monolayer with 6 hr pretreatment of 100 ng/ml IL-36β and/or 10 μM CHX, with treatment applied to apical and basal chambers, representative of N=3 experiments; (H) is permeability apparent for HRMEC treated with IL-36β and/or CHX, calculated as stated previously, wherein T-tests were performed as statistical analysis;
(§2) Protein was extracted from cells using RIPA buffer containing protease inhibitors (Sigma). […]

[6] = tested on: HRMEC transwell monolayer; experiment: Permeability assay (4 kDa FITC dextran flux, Papp); conditions: 100 ng/ml, 6 or 24 hour exposure
Procedure: HRMEC were grown on transwells (Corning) for 5-7 days to polarize. The cells were placed in low serum media and treated with IL-36 cytokines for 6 or 24 hours, before 4 kDa FITC dextran (Sigma) diluted to 1 mg/ml in low serum media was placed in the apical chamber. Sampling aliquots were periodically removed from the basal chamber and placed in a 96 well plate. The basolateral chamber was then replenished with fresh media. This was repeated at 20-minute intervals for 2 hours. The fluorescence of FITC dextran was measured using a fluorescent plate-reader (BioTek) at an excitation wavelength of 485 nm and an emission wavelength of 520 nm. Relative fluorescence units (RFU) were converted to ng/ml using a FITC dextran standard curve and corrected for background fluorescence and serial dilutions over the course of the experiment. The apparent permeability coefficient (Papp) was calculated as follows: […]
where dQ/dT is the apparent rate of FITC dextran appearance in the basolateral chamber, A (cm^2) is the surface area of the insert, C0 (mg/ml) is the initial FITC-dextran concentration in the apical chamber. dQ/dT is the slope (y=mx+c) calculated by plotting the cumulative amount (Q) against time(s).

[7] = tested on: HRMEC; experiment: Tube formation assay (Matrigel); conditions: HRMEC on matrigel, 100 ng/ml, 4 hours, vs unstimulated control
Procedure: Cells were seeded 2 days prior to the experiment in a T75 in complete growth media and allowed to become ˜80% confluent. They were placed in low serum media overnight prior to use in the experiment. 96 well plates were coated with 60 μl of Matrigel Basement Membrane Matrix (Corning) and placed in a 370C incubator for 30 minutes to set as per manufacturer's instructions. HRMEC were then seeded onto the plates at a density of 8×10^4 cells/ml and treated as indicated with cytokine in triplicate. The plates were placed in an Incucyte and phase contrast images of the wells were taken at 10× for 30 minute intervals. The angiogenesis analyser plug-in for ImageJ was used to analyse the images.

[8] = tested on: HRMEC; experiment: HRMEC scratch wound healing / migration with IL-36 cytokines; conditions: treatment applied at time of scratch, 100 ng/ml
Procedure: FIG. 4 illustrates IL-36 cytokines promote endothelial cell migration, wherein (A, B) are representational images of the HRMEC ‘scratch’ healing with (A) IL-36α (B) IL-36β treatment compared to control at 10× magnification, wherein purple dotted lines equate to the size of the wound as imaged using Image J; (C) is rate of wound healing in HRMEC treated with IL-36α expressed as % wound closure, representational of N=4 experiments, wherein two-way ANOVA was performed as statistical test; (D) is a comparison of the level of wound healing between untreated (unt.) and 100 ng/ml IL-36α at 4 and 24 hr post scratch, consolidated N=4 experiments, wherein two-way ANOVA with multiple comparison was performed as statistical test; (E) is rate of wound healing in HRMEC treated with IL-36β expressed as % wound closure, representational of N=4 experiments, wherein two-way ANOVA with multiple comparison performed as statistical test; (F) is a comparison of the level of wound healing between no treatment and 100 ng/ml IL-36β at 4 and 24 hr post scratch, consolidated N=4 experiments, wherein two-way ANOVA with multiple comparison was performed as statistical test;
Cells were seeded on to a 12-well plate and grown until they reached confluency. […] The area within the scratch was quantified using ImageJ software, and each timepoint was normalised to its baseline and expressed as % closure.

[9] = tested on: ZO-1, tricellulin and occludin; experiment: Western blot for tight junction proteins; conditions: HRMEC, 24 h, indicated concentrations
Procedure: as §1, §2

B1: IL-36α: recombinant human (rh) IL-36α (Peprotech) (protein, UniProt Q9UHA7 6-158, looked up)
Interleukin-36 alpha: KIDTPQQGSIQDINHRVWVLQDQTLIAVPRKDRMSPVTIALISCRHVETLEKDRGNPIYLGLNGLNLCLMCAKVGDQPTLQLKEKDIMDLYNQPEPVKSFLFYHSQSGRNSTFESVAFPGWFIAVSSEGGCPLILTQELGKANTTDFGLTMLF
In the case of B1, the TEER [1] is reported as “significantly increased TEER”, the VEGFR2 expression [2] is reported as “reduce VEGFR2 expression” and the “IL-36-dependent barrier enhancement under inhibition of protein translation” value [3] is reported as “absolute loss”. For the same molecule, the “number of cells (stained nuclei count)” value ([4]; 100 ng/ml) was “increase in the number of cells”, the “proliferation (MTS/PMS assay)” value ([4]; 50 or 100 ng/ml) was “significant increase in proliferation” and the “proliferation compared with VEGF (MTS/PMS assay)” value ([4]; VEGF 50 ng/ml positive control) was “neither cytokine was as effective as VEGF alone”. For the same molecule, the VE-cadherin protein expression [5] was “Increased expression of VE-cadherin”, the “rate of FITC-dextran migrating across the HRMEC monolayer” value [6] was “notably decreased” and the length of tubes [7] was “potential ability to increase the length of the tubes”. For the same molecule, the “rate of wound closure and cell migration” value [8] was “increased the rate of wound closure and cell migration significantly” and the “expression of ZO-1, tricellulin and occludin protein” value [9] was “dose dependent increase in expression”.
